{"source": "paper doi:10.1101/2021.05.16.444192", "molecular_target": "neurokinin 1 receptor (human) (UniProt P25103)", "sequence (P25103 whole entry)": "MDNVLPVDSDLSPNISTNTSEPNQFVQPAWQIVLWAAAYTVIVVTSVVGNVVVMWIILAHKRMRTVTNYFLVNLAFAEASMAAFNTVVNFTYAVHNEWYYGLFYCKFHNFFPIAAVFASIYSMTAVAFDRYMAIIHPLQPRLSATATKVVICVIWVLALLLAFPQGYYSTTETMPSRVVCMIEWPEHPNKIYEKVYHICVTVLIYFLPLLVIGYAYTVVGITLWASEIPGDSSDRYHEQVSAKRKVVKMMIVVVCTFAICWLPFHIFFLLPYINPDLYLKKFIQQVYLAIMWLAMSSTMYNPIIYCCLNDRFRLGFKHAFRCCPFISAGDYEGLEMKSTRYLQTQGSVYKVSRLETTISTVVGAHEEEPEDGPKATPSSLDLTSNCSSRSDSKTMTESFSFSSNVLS", "data": [{"substance": "Substance P 6-11 (peptide)", "values": [{"measurement": "cAMP accumulation at wild-type NK1R, potency compared to SP", "value": 16, "unit": "fold"}]}]}
